Measurements as given in publication PMC8187709, “Structural basis for SARS-CoV-2 envelope protein recognition of human cell junction protein PALS1” (Nature Communications, 2021).

B1: SARS-CoV-2 envelope (E) protein C-terminal 18-amino acid peptide (Ec18) (peptide)
peptide: VYSRVKNLNSSRVPDLLV
notes: SARS-CoV-2 envelope (E) protein, 75 residues; also called E C-terminal peptide
B2: PALS1 PSG (PDZ, SH3 and GK domains; residues 236–675 with a deletion between 411–460) (domain or fragment, human, UniProt Q8N3R9 236-675, looked up)
chain: PITDERVYESIGQYGGETVKIVRIEKARDIPLGATVRNEMDSVIISRIVKGGAAEKSGLLHEGDEVLEINGIEIRGKDVNEVFDLLSDMHGTLTFVLIPSQQIKPPPAKETVIHVKAHFDYDPSDDPYVPCRELGLSFQKGDILHVISQEDPNWWQAYREGDEDNQPLAGLVPGKEEILTYEEMSLYHQPANRKRPIILIGPQNCGQNELRQRLMNKEKDRFASAVPHTTRSRRDQEVAGRDYHFVSRQAFEADIAAGKFIEHGEFEKNLYGTSIDSVRQVINSGKICLLSLRTQSLKTLRNSDLKPYIIFIAPPSQERLRALLAKEGKNPKPEELREIIEKTREMEQNNGHYFDTAIVNSDLDKAYQELLRLINKLDTEPQWVPSTWLR
modifications: covalently labeled with dye NT647 (in the MST measurement only)
notes: PALS1, human cell junction protein; PDZ, SH3 and GK domains (PSG), residues 236–675, without the loop between the SH3 and GK domains (deletion between 411–460); codon-optimised synthetic gene in pET16-b; also called PASL1–PSG domains; source: E. coli BL21 (DE3) pLysS, purified (Ni-NTA, TEV cleavage, second Ni-NTA, SEC); not shown: 10x His, N-terminal, cleaved

Legend:
[1] = molecular target: B2; test: MST; […]; 50 mM Tris pH 7.5, 100 mM NaCl, 1 mM DTT, 1 mM EDTA, 0.05% Tween 20; 10 min at room temperature; […]; conditions: both partners purified
[2] = molecular target: the molecule itself; test: SEC; purified PSG on a TSKgel G3000SW column in 25 mM Tris pH 7.5, 100 mM NaCl, 1 mM TCEP

Binder	Kd [1]	stoichiometry N [2]
B1	11.2 µM	
B2		2
